How the values were obtained:
[1] = biological target: T1, human CD3εγ single-chain antigen (human); test: complex mixed at a molar ratio of 1:2, purified by gel filtration and crystallized
T1 construct: also called scCD3εγ; His-scCD3 antigen
T1 chain: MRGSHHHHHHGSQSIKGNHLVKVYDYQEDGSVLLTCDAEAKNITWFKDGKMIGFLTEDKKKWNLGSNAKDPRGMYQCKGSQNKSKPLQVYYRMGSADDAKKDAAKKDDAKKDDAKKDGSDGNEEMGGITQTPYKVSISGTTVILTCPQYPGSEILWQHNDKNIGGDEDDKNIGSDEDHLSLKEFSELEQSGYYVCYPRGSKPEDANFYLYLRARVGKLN
Experimental: The buffer solution was replaced with 10 mM Tris HCl (pH 7.5) and 50 mM NaCl using Amicon Ultra 15 MWCO 10K (Merck Millipore), and the resulting solution was concentrated to 3.5 mg/mL. This concentrate was purified by gel filtration chromatography using Superdex 200 10/300GL (GE Healthcare Bio-Sciences Corp.). A fraction of the complex was concentrated into approximately 4.0 mg/mL using Amicon Ultra 15 MWCO 10K (Millipore).
To 0.5 μL of the protein solution, an equal amount of a precipitant solution (0.1 M MES monohydrate (pH 6.5), 1.6 M ammonium sulfate, and 10% v/v 1,4-dioxane) was added, and the resulting solution was placed in a sealed container containing 0.05 mL of a precipitant solution so that the solutions had no contact with each other. The container was left standing at 25° C. One month later, 0.1 mm×0.05 mm×0.05 mm rod-like crystals were obtained.

[2] = biological target: T2, CD3 immobilized on a sensor chip (Example 7)-1-2); test: SPR (BIAcore T-200), CD3 immobilized, scFv injected at five concentrations; concentration giving 1/2 Rmax
T2 construct: the text says only 'CD3 immobilized on a sensor chip'; also called human CD3
Experimental: Five different concentrations of the scFv were injected into CD3 immobilized on a sensor chip. Rmax was estimated from the resulting response, and the antibody concentration that reached 1/2 thereof was defined as the dissociation constant of the scFv for CD3.

[3] = biological target: T3, cynomolgus monkey CD3 on cynomolgus monkey PBMC or T cell line HSC-F (cynomolgus monkey, UniProt Q95LI5 22-198); test: flow cytometry on cynomolgus monkey PBMC
T3 construct: whole, on cells; Native CD3 complex on monkey T cells; also called cynomolgus monkey CD3 (PBMC); cynomolgus monkey CD3 antigen
T3 sequence (Q95LI5 22-198): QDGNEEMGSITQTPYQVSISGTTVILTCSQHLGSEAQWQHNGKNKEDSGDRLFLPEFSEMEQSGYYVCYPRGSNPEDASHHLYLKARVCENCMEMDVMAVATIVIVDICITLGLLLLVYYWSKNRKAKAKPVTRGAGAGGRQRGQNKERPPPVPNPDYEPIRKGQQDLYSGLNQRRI

human CD3 on human PBMC = biological target: T4, human CD3 on human PBMC (human, UniProt P07766 23-207); test: flow cytometry on human PBMC, Penta-His Alexa Fluor 488 detection (rMFI)
T4 construct: Native CD3 complex on T cells in PBMC; the other chains of the complex are native; also called human CD3 (PBMC)
Experimental: Commercially available human PBMC (Cellular Technology Ltd. (CTL)) was adjusted to an appropriate concentration with PBS containing 5% FBS. LIVE/DEAD Fixable Near-IR Dead Cell Stain Kit (Thermo Fisher Scientific Inc.) and an anti-CD19 antibody (Beckman Coulter Inc.) were added to the cells, which were then left standing at 4° C. for 30 minutes. The cells were washed twice with PBS containing 5% FBS, then adjusted to a concentration of 1×10⁶ cells/mL with PBS containing 5% FBS, added at a concentration of 100 μL/well to a 96-well U-bottomed microplate, and centrifuged to remove a supernatant. […] The cells were washed twice with PBS containing 5% FBS. Then, Penta-His Alexa Fluor 488 (Qiagen N.V.) diluted with PBS containing 5% FBS was added at a concentration of 30 μL/well, and the plate was left standing at 4° C. for 30 minutes. The cells were washed twice with PBS containing 5% FBS and then resuspended in PBS containing 5% FBS, followed by detection using a flow cytometer (FACSCanto™ II; Becton, Dickinson and Company). The data was analyzed using Flowjo (Tree Star Inc.). The mean fluorescence intensity (MFI) of Alexa Fluor 488 in a fraction free of dead cells and CD19-positive cells was calculated. The MFI value of the scFv-unsupplemented sample was subtracted from the MFI value of the scFv-supplemented sample to calculate a relative value of MFI (rMFI).

B1: C3E-7034 (humanized anti-CD3 scFv) (scFv)
scFv: GEVQLVESGGGLVQPGGSLRLSCAASGVTFNYYGMSWIRQAPGKGLEWVASITNSGGRIYYPDSVKGRFTISRENTQKTLYLQMNSLRAEDTAVYYCTLDGRDGWVAYWGQGTLVTVSSGGGGSGGGGSGGGGSNFMLTQPHSVSESPGKTVTISCKRNTGNIGSNYVNWYQQHEGSSPTTIIYRDDKRPDGVSDRFSGSIDRSSKSASLTISNLKTEDEADYFCQSYSSGFIFGGGTKLTVLGAAAGAGGDYKDDDDKGAAAHHHHHH
What does the source list for B1?
binding result [1]: binds; Kd [2]: 4.5 nM; binding result [3]: binds; binding result (human CD3 on human PBMC): binds

Source: patent US20190359712A1 (Daiichi Sankyo, published 2019)
